Test results as given in patent US20050048634.

B1: hDOT1L(1-416) (protein)
chain: MGEKLELRLKSPVGAEPAVYPWPLPVYDKHHDAAHEIIETIRWVCEEIPDLKLAMENYVLIDYDTKSFESMQRLCDKYNRAIDSIHQLWKGTTQPMKLNTRPSTGLLRHILQQVYNHSVTDPEKLNNYEPFSPEVYGETSFDLVAQMIDEIKMTDDDLFVDLGSGVGQVVLQVAAATNCKHHYGVEKADIPAKYAETMDREFRKWMKWYGKKHAEYTLERGDFLSEEWRERIANTSVIFVNNFAFGPEVDHQLKERFANMKEGGRIVSSKPFAPLNFRINSRNLSDIGTIMRVVELSPLKGSVSWTGKPVSYYLHTIDRTILENYFSSLKNPKLREEQEAARRRQQRESKSNAATPTKGPEGKVAGPADAPMDSGAEEEKAGAATVKKPSPSKARKKKLNKKGRKMAGRKRGRPKK
B2: hDOT1L(1-416) Δ(376-390) (protein)
chain: MGEKLELRLKSPVGAEPAVYPWPLPVYDKHHDAAHEIIETIRWVCEEIPDLKLAMENYVLIDYDTKSFESMQRLCDKYNRAIDSIHQLWKGTTQPMKLNTRPSTGLLRHILQQVYNHSVTDPEKLNNYEPFSPEVYGETSFDLVAQMIDEIKMTDDDLFVDLGSGVGQVVLQVAAATNCKHHYGVEKADIPAKYAETMDREFRKWMKWYGKKHAEYTLERGDFLSEEWRERIANTSVIFVNNFAFGPEVDHQLKERFANMKEGGRIVSSKPFAPLNFRINSRNLSDIGTIMRVVELSPLKGSVSWTGKPVSYYLHTIDRTILENYFSSLKNPKLREEQEAARRRQQRESKSNAATPTKGPEGKVAGPADAPMDSGPSKARKKKLNKKGRKMAGRKRGRPKK

Molecular target: oligo-nucleosomes purified from HeLa cells or chicken blood cells

Protein | HMTase activity in the presence of increasing concentrations (1.5, 15, 150 uM) of the competitor peptide C-RS10 (SEQ ID NO:20)
B1 | effectively competed with increasing concentrations of the peptide
B2 | effectively competed with increasing concentrations of the peptide
